Results on one substance are retold here after US20180057589A1.

Assay [1] has as its target N-myc-Notch1 on K1-CHO cells. Kind of assay: FACS dot plot α-Myc (PE) against α-NRR1 (FITC), K1-CHO myc-N1 cells, -Dox (transgene not induced), panel 5 (other quadrants: upper left 0.72, lower left 99, lower right 0.14).
Assay [2] has as its target mouse Notch1 NRR protein (mouse) (UniProt Q01705). The assay can be described thus: SPR. Background: SPR reads the build-up and loss of mass on a sensor chip optically.
Assay [3] has as its target human Notch1 NRR protein (human) (UniProt P46531). The assay can be described thus: SPR.
In assay [4] the target is N-myc-Notch2 on K1-CHO cells. Kind of assay: FACS dot plot α-Myc (PE) against α-NRR1 (FITC), K1-CHO myc-N2 cells, +Dox, panel 3 (other quadrants: upper left 58.6, lower left 41.3, lower right 0.026).
The target in assay [5] is Notch1 on stably transfected NIH-3T3 cells. The assay can be described thus: cell-based or functional assay.
For assay [6], the target named is hamster Notch2, endogenous on K1-CHO cells (hamster). Kind of assay: FACS dot plot α-Myc (PE) against α-NRR1 (FITC), untransfected K1-CHO cells, +Dox, panel 1 (other quadrants: upper left 0.15, upper right 0.034, lower left 99.7).
Assay [7] shares this target. Kind of assay: FACS dot plot α-Myc (PE) against α-NRR1 (FITC), untransfected K1-CHO cells, -Dox, panel 4 (other quadrants: upper left 0.13, upper right 0.041, lower left 99.7).
The target of assay [8] is N-myc-Notch1 on K1-CHO cells. Kind of assay: FACS dot plot α-Myc (PE) against α-NRR1 (FITC), K1-CHO myc-N1 cells, +Dox, panel 2 (other quadrants: upper left 17.1, lower left 26.2, lower right 0.077).
In assay [9] the target is N-myc-Notch2 on K1-CHO cells. The assay can be described thus: FACS dot plot α-Myc (PE) against α-NRR1 (FITC), K1-CHO myc-N2 cells, -Dox (leaky expression per the text), panel 6 (other quadrants: upper left 18, lower left 81.8, lower right 0.1).
Assay [10] concerns the target mouse Notch1 NRR protein (mouse) (UniProt Q01705). Kind of assay: ELISA on captured Flag-tagged NRR protein. (In general: ELISA stands for enzyme-linked immunosorbent assay.)
For assay [11], the target named is human Notch1 NRR protein (human) (UniProt P46531). Kind of assay: ELISA on captured Flag-tagged NRR protein.
Sequence of human Notch1 NRR protein (human) (P46531 1446-1733 limits assumed): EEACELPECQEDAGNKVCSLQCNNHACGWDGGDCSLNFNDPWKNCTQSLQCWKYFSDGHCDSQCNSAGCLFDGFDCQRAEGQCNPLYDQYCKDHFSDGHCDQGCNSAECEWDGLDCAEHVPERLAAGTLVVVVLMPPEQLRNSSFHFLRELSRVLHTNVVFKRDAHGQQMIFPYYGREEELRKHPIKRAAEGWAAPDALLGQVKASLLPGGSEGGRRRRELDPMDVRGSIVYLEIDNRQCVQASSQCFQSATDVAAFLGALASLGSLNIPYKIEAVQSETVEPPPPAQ

Sequence of mouse Notch1 NRR protein (mouse) (Q01705 1446-1723 limits assumed): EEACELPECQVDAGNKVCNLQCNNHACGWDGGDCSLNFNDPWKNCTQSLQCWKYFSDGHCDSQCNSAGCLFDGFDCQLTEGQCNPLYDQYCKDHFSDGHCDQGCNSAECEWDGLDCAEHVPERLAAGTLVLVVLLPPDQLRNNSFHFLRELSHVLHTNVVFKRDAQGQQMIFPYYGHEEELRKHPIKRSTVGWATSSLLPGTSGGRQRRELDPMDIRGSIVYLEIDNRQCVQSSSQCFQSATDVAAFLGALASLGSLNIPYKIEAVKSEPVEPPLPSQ

What is called Kd is the free concentration of one partner at which half of the binding sites on the other are occupied at equilibrium, for simple one-to-one binding. Low readings indicate a tighter complex, high ones a looser complex. The EC50 is the concentration giving half of the maximal effect. Low values mean greater potency, high ones weaker potency. For the substance anti-NRR1 (antibody), the % of cells in the α-Myc-positive / α-NRR1-positive quadrant (upper right) in [1] turned out to be 0.097%; in [4], 0.064%; in [8], 56.6%; in [9], 0.13%. Besides, the Kd in assay [2] and in assay [3] was 3 nM throughout. Besides, the Notch reporter (luciferase) in Jag1 co-culture assay: antibody concentration for complete inhibition of Notch1 signaling in [5] fell in the range of 80 to 400 ng/mL. Moreover, the values for the % of cells in the α-Myc-negative / α-NRR1-positive quadrant (lower right) in [6] and in assay [7] were 0.082% and 0.12%, respectively. For the same substance, the EC50 in assay [10] and in assay [11] was 0.1 µg/mL throughout.
